In PMC7069958, “Multi-level and lineage-specific interactomes of the Hox transcription factor Ubx contribute to its functional specificity”:
Each block holds one molecule with its values, some of them ahead of it.

Columns and labels:
V5-Tin = target: T1, V5-Tin (UniProt P22711); test: EMSA; conditions: 20 mM HEPES pH 7.9, 1.4 mM MgCl2, 1 mM ZnSO4, 40 mM KCl, 0.1 mM EDTA, 5% glycerol, 0.2 ug poly(dI-dC), 0.1 ug BSA, 10 mM DTT, 0.1% NP40, 30 ul, 20 min; gel 6% …
T1 sequence: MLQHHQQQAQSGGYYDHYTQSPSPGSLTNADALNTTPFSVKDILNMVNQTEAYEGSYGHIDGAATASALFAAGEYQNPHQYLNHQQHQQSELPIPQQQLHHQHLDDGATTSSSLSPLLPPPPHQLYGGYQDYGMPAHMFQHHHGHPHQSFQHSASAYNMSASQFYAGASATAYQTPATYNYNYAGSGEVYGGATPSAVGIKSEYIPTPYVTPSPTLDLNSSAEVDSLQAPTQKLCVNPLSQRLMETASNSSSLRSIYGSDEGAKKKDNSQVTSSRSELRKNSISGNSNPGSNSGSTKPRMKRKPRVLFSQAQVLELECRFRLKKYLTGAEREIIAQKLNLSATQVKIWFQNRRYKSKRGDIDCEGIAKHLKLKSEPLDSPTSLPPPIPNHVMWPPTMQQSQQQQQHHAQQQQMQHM

[1] = target: GST-Ubx^FL (full length) (Drosophila) (UniProt P83949); test: pull-down; GST or GST-Ubx fusion proteins in equal amounts with His-purified proteins; affinity buffer (20 mM HEPES, 10 uM ZnCl2, 0.1% Triton, 2 mM EDTA) with NaCl, 1 mM DTT, 0.1 mM PMSF; 2 h at 4 °C; western blot
GST-Ubx^FL (full length) (Drosophila), sequence (P83949 whole entry, the tested form may be a part): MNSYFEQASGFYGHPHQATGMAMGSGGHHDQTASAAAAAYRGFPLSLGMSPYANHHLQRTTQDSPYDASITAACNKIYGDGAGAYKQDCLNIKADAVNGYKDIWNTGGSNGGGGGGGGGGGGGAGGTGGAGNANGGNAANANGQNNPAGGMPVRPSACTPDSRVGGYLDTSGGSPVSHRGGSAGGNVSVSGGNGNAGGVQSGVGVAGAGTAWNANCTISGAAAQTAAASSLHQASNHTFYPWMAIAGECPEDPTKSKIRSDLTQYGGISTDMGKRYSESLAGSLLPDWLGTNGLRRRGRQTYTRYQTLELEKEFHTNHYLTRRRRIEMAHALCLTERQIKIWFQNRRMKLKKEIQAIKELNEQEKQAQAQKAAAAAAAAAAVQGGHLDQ

Molecule: CAATCGCTGTAAATAAATAGGAGCCGCAGATCAAAGGCCTATCAATTAGCACCCATTTCGATTATGCTGCATGCTGCATATGCAGCACTTGCACTGCCTGCAATTCACACCCAATTAGTAATAAATTTGAATGCGCGCTGCAATTTGCCG (double strand) [dpp674 enhancer fragment F3 (150 bp)]
binding (V5-Tin): binds

fold stronger than the Ubx-Exd interaction (signal in pull-down compared with input) [1]: > 10 fold
B1: V5-Tin, His-purified (natural protein)
chain: T1 sequence
